Experiment: soluble on expression in E. coli; label from the status in PepcDB or PDB records

Row | Sequence | soluble on expression in E. coli
1 | MIELAELTKTAGGLVIDQFTQKRERPDSRTMIGSGKLEQMRWAIEVGEIDTVIFNDRLSPRQNVNLEEALGVKVIDRMQLILDIFAMRARSHEGMLQVEEAQLNYLLPRLVGQGIMLSRQGGGIGSKGPGETKLETDRRYIRTRIENIDKALKKVEKTRENIRQKRSKSGIFRIGLIGYTNAGKSSIMNALVGLDKEQYEQNELFATLDATTKAVKLVEDFTVSLTDTVGFIQNLPTELIKAFKSTLEESANVDLLIHVVDASNPHHEIHEQTVLKIMEDLKLTNIPVLNVYNKMDIAPSDFLPTLSPSLQLSIKSESGVQWLKTAILEKLHELFDAFELELPYEKAYQLPELRKSALVQSVVEGEKGYLIKGLIAPELSWKLPNNLEHHHHHH | not soluble
2 | MGSDKIHHHHHHMRIPPLKAIIAFESVARTKSVNRAAEELGLTASAVSHQLSNLESQIGQPLFQRSGRGLVLTPTGERYLTDVTGSLADLSRATERASSRTEVDILRVHSSPSFGLMWLLPRLSSFQEANGDIELNLACSYENVSFSNGFYDIDVRHGYGNWDNLEVRTVRGEFIAPLASPQYLERHPVKAPEDLLAHRLIYSETPLVQWKQWFGRAGVSLAAQKTFDFSFDRSYMSLETAALGLGIALESLMLASVKIREGLLVPVFDATHAVEVGAHHLVYPRQNAELPRVKRFLAWIEREVAGHGRAS | not soluble
3 | MNYAIQSETRHYPYLEVSARKRALKHSLIRVEQGLLLFRLGKHEYAVEKGQTLWIPFDCLCGLTFFPDTHITRVDFSLRLNVRLPHNAGFIKSSELALAVLHRLQNCERHHPTFTHLTQLLMLELTTCDPKLKMSPLTQAITEWQPQAHASVSKEQHVVLLVREALKRSQSGAQTHSIIEELFSGNAEHYHQLCTLVLGRTL | not soluble
4 | MSLEKHRMLVIDDDPIAHQIMQMLFEAELRLTCKVTGEEGLSAVEEEQPEIVLLDIEMEGMDGYEACRRIRQLNLPSQPYIIFVSAHSDPVKRLAAYSVGGEDFVSKPLQPQELTRKVEQALRYRREGHHHHHH | not soluble
5 | MDRFELLGPLPREGTTTVLEASAGTGKTFALAGLVTRYLAETAATLDEMLLITFNRAASRELRERVRGQIVEAVGALQGDAPPSGELVEHLLRGSDAERAQKRSRLRDALANFDAATIATTHEFCGSVLKSLGVAGDNAADVELKESLTDLVTEIVDDRYLANFGRQETDPELTYAEALALALAVVDDPCAQLRPPDPEPGSKAAVRLRFAAEVLEELERRKGRLRAQGFNDLLIRLATALEAADSPARDRMRERWRIVLVDEFQDTDPMQWRVLERAFSRHSALILIGDPKQAIYGFRGGDIHTYLKAAGTADARYTLGVNWRSDRALVESLQTVLRDATLGHADIVVRGTDAHHAGHRLASAPRPAPFRLRVVKRHTLGYDGTAHVPIEALRRHIPDDLAADVAALLASGATFAGRPVVAADIAVIVEHHKDARACRNALAEAGIPAIYTGDTDVFASQAAKDWLCLLEAFDAPQRSGLVRAAACTMFFGETAESLAAEGDALTDRVAGTLREWADHARHRGVAAVFQAAQLAGMGRRVLSQRGGERDLTDLAHIAQLLHEAAHRERLGLPGLRDWLRRQAKAGAGPPEHNRRLDSDAAAVQIMTVFVAKGLQFPIVYLPFAFNRNVRSDDILLYHDDGTRCLYIGGKDGGAQRRTVEGLNRVEAAHDNLRLTYVALTRAQSQVVAWWAPTFDEVNGGLSRLLRGRRPGQSQVPDRCTPRVTDEQAWAVFAQWEAAGGPSVEESVIGARSSLEKPVPVPGFEVRHFHRRIDTTWRRTSYSDLVRGSEAVTVTSEPAAGGRADEVEIAVVAAPGSGADLTSPLAALPSGASFGSLVHAVLETADPAAPDLAAELEAQVRRHAPWWTVDVDHAQLAPELARALLPMHDTPLGPAAAALTLRQIGVRDRLRELDFEMPLAGGDLRGRSPDVSLADVGELLASHLPGDDPLSPYADRLGSAGLGDQPLRGYLAGSIDVVLRLPGQRYLVVDYKTNHLGDTAADYGFERLTEAMLHSDYPLQALLYVVVLHRFLRWRQRDYAPARHLGGVLYLFVRGMCGAATPVTAGHPAGVFTWNPPTALVVALSDLLDRGRLQS | soluble
6 | MNMVAQQMPSPEEIAAQLQMIRDQIAELQGVLAQLELRLRSVQAAKETVEKAAGQDGETLFPGDPELNTILKARLLEPGKAIVHLGLNVYAKLDTAKATEILAKKEDALKRSLETLKQELDKLSRTHDQYLQLLQALTAGQAAQQAGQQQKQGS | soluble
7 | MSLIFLDYDGTLVPIIMNPEESYADAGLLSLISDLKERFDTYIVTGRSPEEISRFLPLDINMICYHGACSKINGQIVYNNGSDRFLGVFDRIYEDTRSWVSDFPGLRIYRKNLAVLYHLGLMGADMKPKLRSRIEEIARIFGVETYYGKMIIELRVPGVNKGSAIRSVRGERPAIIAGDDATDEAAFEANDDALTIKVGEGETHAKFHVADYIEMRKILKFIEMLGVQKKQEGHHHHHH | soluble
8 | MGSDKIHHHHHHMNRLIRTGVLGFLVWLAGCGHAPVQEKPTPEELKQRALQSAKIHTELAGQYYHRGQYRVAIEEAEIALQKKTDYAPAYNMLGLVYMDLQEDDRAEWNFERGLGITPNDPDIRNNFGWFLCQRKPDGIEQAIGHFMAAVRDPLYETPERTYTNAGLCVLKQNDFERAQSYFQEALVIRPGYPLARLGLVELDFSRGEVKKAWAAINRYLQTYPPAPGSLWLAVRIARANGDVNAETNYAFQLQKRFPDSREARESRAGRLNHER | not soluble
9 | MGSDKIHHHHHHMTAPHTETDSTQQFLDSMPELKPGEKFQFACHPGVACFNACCSDLTMPLSPYDVLRLRQETGQDSEGFISTFARVETYPDTNFPILYMKMTDGPVRPCPFVSQAGCQVYPNRPAACRTYPLGRGTRVDAQGRLVEQYFIIAEQHCHGFAEEPVWTSEEWLQDQGLARYNYFGDRYTRLMGRAMETGLVLTQKQLTLCLLALYEADRFGAFISGVNLFARLNVSAQEQARILEDEEARLEFGFDWTELVLFGDNERLQVVNP | not soluble
10 | SPGRSSTSSGSTRYISFSGIESALSSLKNFQSCISSGMDTVSSVALDLVETQTEVSSEYSMDKAMVEFAKMDRELSHYVKAVQSTINHVKEERPEKVPDLKLLVEKKFLALQDKNSDADFKENEKFVQFKQQLRELKKQYGIHADRENDLTEGVDEDMIVTQSQTNFICPITQLEMKKPVKNKMCGHTYEEEAIVRMIESKHKRKKKACCPKIGCSHTDMRMSDLIPDEALRRAIESHNKKKKRHSE | soluble
11 | MAVNLYDYANQLEQALRESEEYKAIKEAFANVKANEESKKLFDEFRETQINFQQKQMQGEEIAEEDLQKAQEQAQAIEKDENISALMNAEQKMSQVFQEINQIIVKPLDEIYAD | not soluble
12 | MVEGKVTLRLRYTKTGAMRFLSHLEMIGLFTRAVGRSRIPIRFSRGFHPHPKFSFATALSVGVESWAEYLDMELFPGADPTDIGTRLNGALPEGVRIVEASVIPPGSPSLSVIMDKVRYRVTLPPEAAVGLPELAAAFLARESVPLRREKKGRVLEHHHHHH | soluble
13 | FVDPLCPECWSLEPVIKKLKIRYGRFFTLRIIASASLTALNKKRKKHLLAEAWEKIASRSGMSCDGNVWFEQDQPLSSPYMAALAFKAAELQGRKAGMQFLRNMQESLFVSKKNITDENVLLEIAENTSLDLEEFKKDLHSQSAVKALQCDMKIAAEMDVSVNPTLTFFNTQHEDEGLKVPGSYSYDVYEEILFEMLGDE | not soluble
14 | MINEIKKDAQERMDKSVEALKNNLSKVRTGRAHPSLLSGISVEYYGAATPLNQVANVVAEDARTLAITVFDKELTQKVEKAIMMSDLGLNPMSAGTIIRVPLPPLTEERRKDLVKIVRGEAEGGRVAVRNIRRDANNDLKALLKDKEISEDEDRKAQEEIQKLTDVAVKKIDEVLAAKEKELMEV | soluble
15 | MAFEKIIQLKNCRYDYTLSPSVKKFTLKDNTFFETKVGNYELTRLLEKVPNSGEGFQLKIIINKELTGAKINITDKFGLRLVDIFKSEDHHIHQEKFYFLMDSLVERGVFTKSER | not soluble
16 | MEQLQVGQVTLTWLNGGVTHLDGGAMFGVVPKPLWSKKYPPNDQNQIELRTDPILVEAGGKRLLIESGIGNGKLTDKQKRNFGVTEESSLDESLAALGLTRGDIDIVIMTHLHFDHACGLTVWEDGRLVPAFPRAAIITSDVEWEEMRAPNIRSRNTYWKENWEPIAEQVIPFTKETEVVSGIRLIHTGGHSAGHAIVLIESDGEMAIHLGDLLGTHAHQNVLWVMAYDDYPMDSIFAKQRWLPYGIERNAWFTFYHDAYYRAVKWREDGTIAEQVKRNRPTLLEHHHHHH | soluble
17 | AKGRAGRSKRTEQDHYETDYTTGGESCDELEEDWIREYPPITSDQQRQLYKRNFDTGLQEYKSLQSVLDEINKELSRLDKELDDYREESEEYMAAADEYNRLKQVKGSADYKSKKNHCKQLKSKLSHIKKMVGDYDRQKT | soluble
18 | MVINSINWLFSEVVAMAVGEKITISVIKADVGGWPGHSRVHPALIEKAREVLSEAQKNGTIIDFYVTYAGDDLQLIMTHKKGVDSPEVHGLAWEAFKKATEVAKELGLYGAGQDLLKDAFSGNVRGLGPSVAEMEITLRKSEPIVTFHLDKTEPGAFNLPIFRMFADPFNTAGLVIDPKMHMGFRFEIWDILEHKKVIMSSPEEMYDILALIGAKSRYVIKRVYPKEGHPVPKDEPVAVVSTEKLYEVAGEYVGKDDPVAIVRAQSGLPALGEVLEPFAFPHLVSGWMRGSHNGPLMPVPLKYATPTRFDGPPRAVALGWQISPEGKLIGPVDLFDDPAFDWARQKALEITDYIRRHGPFEPHRLPSEEMEYTTLPGVLEKLKDRFEPIE | soluble
19 | LAKGLEDVYIDQTNICYIDGKEGKLYYRGYSVEELAELSTFEEVVYLLWWGKLPSLSELENFKKELAKSRGLPKEVIEIMEALPKNTHPMGALRTIISYLGNIDDSGDIPVTPEEVYRIGISVTAKIPTIVANWYRIKNGLEYVPPKEKLSHAANFLYMLHGEEPPKEWEKAMDVALILYAEHEINASTLAVMTVGSTLSDYYSAILAGIGALKGPIHGGAVEEAIKQFMEIGSPEKVEEWFFKALQQKRKIMGAGHRVYKTYDPRARIFKKYASKLGDKKLFEIAERLERLVEEYLSKKGISINVDYWSGLVFYGMKIPIELYTTIFAMGRIAGWTAHLAEYVSHNRIIRPRLQYVGEIGKKYLPIELRR | soluble
20 | MGSDKIHHHHHHMQQAHNDGVVSAMSQATDARLAAQDLARQLLHPHLGFVLFFCSAEYDLQALGEALEQDFGGIRLVGCTSAGEITPLGYGRNCVTAVGFDHRHFSIATALIDEMERFSLIDAQQMVERLVGTCRSNTLAPIKGHSFALTLLDGLSSREEMVLAALSAALGDIPHFGGSAGDDNYLNRTHVYYGGAFHNGAAVVVLVNTWLDFEVFTTHHILPRQEKLVVTGADSAQRRVFELNAEPAAEEYARHIGVPVAALDHRVFAAHPLAVRIHDQYYVRAIQQMHPDLSLSFYCAVENGIVLTAMTPGPLLPNLHQLFDGLHQRLGPLLLTIGCDCFLRRLELEAHRGLEPVGAFLREQRVIGFNTYGEQFNGMHINQTFTGVAIARNRPPVGR | not soluble
21 | MTEKKLLMGNEAIAFGAIEAGVQVVTGYPGTPSTEALETIARHAEKCGVYAEWSSNEKVALETAAGAAYSGAKALVTMKQVGLNVASDPLMSLTYIGVKGALVLLVADDPGPHSSQTEQDTRSFGHFANIPVLDPASPQEAYELTKLAFEISHQFEVPVILRTTTRVSHSSGDVELLNSEPSPVEAFC | not soluble
22 | MGSDKIHHHHHHMTTLKARLRQGQAITMIGNSLPDTYAAEMVASAGFDAVMIDLQHSAIGLHEVNDLARAVRAQGCAPVVRVAANDPAAITKVLDGGVDAVVAPMINSAEACRQFISACYYAPLGDRSFGPYLGQVIQRQSIQDYYAQTRDRLLPIAMIENEEGVRQAEQIMRTEGLGAIYVGASDLSIAMGMDCVPDYRNARLLDCIKGLIDLGERCGIPVGAFAPTLEDSLMLQSLGSRILWVGSDQGFIKAGCAARAQQYHAESSPRR | not soluble
